Patent publication US20220047617A1, “Nucleic acid nanocarrier drug, preparation method, pharmaceutical composition and use thereof” (BAI YAO ZHI DA (BEIJING) NANOBIO TECHNOLOGY CO., LTD., priority 2018, published 2022)
Substitutions are numbered along the chain they refer to. {Biotin} = biotin label attached at strand end

B1: R-21: extension fragment deformation+core short-sequence RNA nanoparticles, strands SEQ ID NO: 138-140, a-strand 3′-biotin, 2′F (nucleic acid)
chain 1: GCGGCGAGCGGCGACGAGCGUUGCGGCCGGAGGCCGG
chain 2: CCGGCCUCCGGCCGCUUCGGCGCCAGCCGCC
chain 3: GGCGGCAGGCGCCCAUAGCCGUCGCCGCUCGCCGC
modifications: RNA nanoparticle strands, 2'-fluoro modified, a-strand 3'-biotin, positions not given here
B2: R-19: extension fragment deformation+core short-sequence RNA nanoparticles, strands SEQ ID NO: 132-134, a-strand 3′-biotin, 2′F (nucleic acid)
chain 1: B1 chain 1 with C15G, G16C, G23C, C24G
chain 2: B1 chain 2 with G14C, C15G, G22C
chain 3: B1 chain 3 with C10G, C20G, G21C
modifications: RNA nanoparticle strands, 2'-fluoro modified, a-strand 3'-biotin, positions not given here
B3: R-17: extension fragment deformation+core short-sequence RNA nanoparticles, strands SEQ ID NO: 126-128, a-strand 3′-biotin, 2′F (nucleic acid)
chain 1: B1 chain 1 with C15G, C24G
chain 2: B1 chain 2 with G14C, G20C
chain 3: B1 chain 3 with C12G, G21C
modifications: chain 1: 3' {Biotin}, sugars by position and backbone not given here; chain 2: sugars by position and backbone not given here; chain 3: sugars by position and backbone not given here; RNA nanoparticle, 2'-fluoro modified
B4: R-15: extension fragment deformation+core short-sequence RNA nanoparticles, strands SEQ ID NO: 120-122, a-strand 3′-biotin, 2′F (nucleic acid)
chain 1: B1 chain 1 with C15G, C24G
chain 2: B1 chain 2 with G14C, C21G
chain 3: B1 chain 3 with G11C, G21C
modifications: chain 1: 3' {Biotin}, sugars by position and backbone not given here; chain 2: sugars by position and backbone not given here; chain 3: sugars by position and backbone not given here; RNA nanoparticle, 2'-fluoro modified
B5: R-18: extension fragment deformation+core short-sequence RNA nanoparticles, strands SEQ ID NO: 129-131, a-strand 3′-biotin, 2′F (nucleic acid)
chain 1: B1 chain 1 with C15G, G16C, G23C, C24G
chain 2: B1 chain 2 with G14C, C15G
chain 3: B1 chain 3 with C20G, G21C
modifications: chain 1: 3' {Biotin}, sugars by position and backbone not given here; chain 2: sugars by position and backbone not given here; chain 3: sugars by position and backbone not given here; RNA nanoparticle, 2'-fluoro modified
B6: R-16: extension fragment deformation+core short-sequence RNA nanoparticles, strands SEQ ID NO: 123-125, a-strand 3′-biotin, 2′F (nucleic acid)
chain 1: B1 chain 1 with C15G, G16C, G23C, C24G
chain 2: B1 chain 2 with G14C, C15G, G20C
chain 3: B1 chain 3 with C12G, C20G, G21C
modifications: chain 1: 3' {Biotin}, sugars by position and backbone not given here; chain 2: sugars by position and backbone not given here; chain 3: sugars by position and backbone not given here; RNA nanoparticle, 2'-fluoro modified

Experiment: TM value detection by solubility curve method (SYBR Green I)
Type: physicochemical
Details: extension fragment deformation+core short-sequence RNA nanoparticles; temperature at ½ RFUmax in 20 to 90 DEG C. taken as Tm
Procedure: A solubility curve method is used to detect TM values of the 7 groups of the extension fragment deformation+core short-sequence RNA nanoparticles, and the samples are consistent with the potential samples.
(1) After the sample is diluted with ultrapure water, 5 μg of the diluted sample is mixed with 2 μL of SYBR Green I dye (diluted by 1:200), a final volume is 20 μL, and the dilution concentration is as follows:
(2) It is incubated for 30 min in the dark at a room temperature; and
(3) On-machine detection is performed, a program is set to start at 20 DEG C., the temperature rises per second from 0.1 DEG C. to 95 DEG C., and reading is performed every 5 s.
Due to the particularity of the RNA samples, a temperature corresponding to ½ RFUmax in a range of 20 to 90 DEG C. is used as a sample Tm value in this test.
A solubility curve method is used to detect TM values of the 7 groups of the extension fragment deformation+core short-sequence DNA nanoparticles, and the samples are consistent with the potential samples.

Point of comparison: B4, TM value 57.5 °C. Against it:
- B1 — higher, 65.0 °C
- B2 — lower, 54.0 °C
- B3 — lower, 55.2 °C
- B5 — lower, 54.5 °C
- B6 — lower, 53.8 °C
